How the values were obtained:
[1] = biological target: T1, Glycoprotein VI extracellular domain (Gln21-Lys267) (Homo sapiens) (UniProt Q9HCN6); experiment: filter
T1 sequence: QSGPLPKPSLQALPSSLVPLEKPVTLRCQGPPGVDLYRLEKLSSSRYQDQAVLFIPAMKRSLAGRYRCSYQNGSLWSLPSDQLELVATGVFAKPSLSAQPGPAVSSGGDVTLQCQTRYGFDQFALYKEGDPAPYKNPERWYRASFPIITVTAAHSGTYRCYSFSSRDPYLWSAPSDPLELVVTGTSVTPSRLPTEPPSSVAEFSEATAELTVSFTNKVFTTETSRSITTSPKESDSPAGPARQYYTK

[2] = biological target: T2, Glycoprotein VI extracellular domain (Gln21-Lys267) (Homo sapiens, UniProt Q9HCN6 SEQ:1-247); experiment: filter; p374 states 2-4 nM; buffer F (150 mM NaCl, 2 mM CaCl2), 37 C; conditions: tags: C-terminal His6; R&D Systems 3627-GP; label: 5'-32P
T2 chain: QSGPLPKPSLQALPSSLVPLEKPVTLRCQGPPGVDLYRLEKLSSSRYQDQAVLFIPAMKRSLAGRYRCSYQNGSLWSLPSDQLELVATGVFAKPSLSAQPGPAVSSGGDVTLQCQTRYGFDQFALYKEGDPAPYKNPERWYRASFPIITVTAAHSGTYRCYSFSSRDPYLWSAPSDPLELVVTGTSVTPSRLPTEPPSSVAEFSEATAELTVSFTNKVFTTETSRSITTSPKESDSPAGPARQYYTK
Method: (§1) Enrichment of the ligand libraries for GPVI was monitored in direct binding studies utilizing radiolabeled ligand RNA from respective rounds of SELEX and soluble GPVI. Binding studies were performed with trace P³² end-labeled RNA added to serial dilutions of GPVI in Binding Buffer F. To prepare radiolabeled RNAs for binding studies, one hundred picomoles of RNA was dephosphorylated with Bacterial Alkaline Phopshatase at 50° C. for 1 hour. The reaction was phenol:chloroform:isoamyl alcohol (25:24:1) extracted, chloroform: isoamyl:alcohol (24:1) extracted, and ethanol precipitated. Three pmoles of dephosphorylated RNA was end labeled with T4 Poylnucleotide Kinase with supplied buffer, and 20 μCi of γ-P³²-ATP and subsequently cleaned with a Biorad MicroBio Spin P-30 spin column. End-labeled RNA was diluted to a final concentration of 2000 cpm/μL and heat denatured at 65° C. for 5 minutes. RNA and GPVI dilutions were equilibrated at 37° C. prior to use. RNA (5 μL) was added to varying concentrations of GPVI (15 μL) at 37° C. and incubated together for 5 to 15 minutes. […] The membranes were exposed to a phosphorimager screen, scanned, and quantitated with a Molecular Dynamics Storm 840 Phosphorimager. The fraction bound was calculated by dividing the counts on the nitrocellulose by the total counts and adjusting for the background. […]

[3] = biological target: T2, Glycoprotein VI extracellular domain …; experiment: competition; competition with radiolabeled parent ligand; conditions: tags: C-terminal His6; R&D Systems 3627-GP
[4] = biological target: T2, Glycoprotein VI extracellular domain …; experiment: competition; competition with radiolabeled parent; conditions: tags: C-terminal His6; R&D Systems 3627-GP
[5] = biological target: T2, Glycoprotein VI extracellular domain …; experiment: filter; conditions: tags: C-terminal His6; R&D Systems 3627-GP; label: 5'-32P
Method: Enrichment of the ligand libraries for GPVI was monitored in direct binding studies utilizing radiolabeled ligand RNA from respective rounds of SELEX and soluble GPVI. Binding studies were performed with trace P³² end-labeled RNA added to serial dilutions of GPVI in Binding Buffer F. To prepare radiolabeled RNAs for binding studies, one hundred picomoles of RNA was dephosphorylated with Bacterial Alkaline Phopshatase at 50° C. for 1 hour. The reaction was phenol:chloroform:isoamyl alcohol (25:24:1) extracted, chloroform: isoamyl:alcohol (24:1) extracted, and ethanol precipitated. Three pmoles of dephosphorylated RNA was end labeled with T4 Poylnucleotide Kinase with supplied buffer, and 20 μCi of γ-P³²-ATP and subsequently cleaned with a Biorad MicroBio Spin P-30 spin column. End-labeled RNA was diluted to a final concentration of 2000 cpm/μL and heat denatured at 65° C. for 5 minutes. RNA and GPVI dilutions were equilibrated at 37° C. prior to use. RNA (5 μL) was added to varying concentrations of GPVI (15 μL) at 37° C. and incubated together for 5 to 15 minutes. The complexed RNA/GPVI protein mixture was then loaded over a Protean BA85 nitrocellulose membrane, overlayed on a Genescreen Plus Nylon membrane, in a 96 well vacuum manifold system with washing. The membranes were exposed to a phosphorimager screen, scanned, and quantitated with a Molecular Dynamics Storm 840 Phosphorimager. The fraction bound was calculated by dividing the counts on the nitrocellulose by the total counts and adjusting for the background. Results for binding of enriched ligand libraries from round 10 E2 and round 10 EF of the SELEX as compared to the GPVI-naïve starting ligand library are shown in FIG. 3.

[6] = biological target: T2, Glycoprotein VI extracellular domain …; experiment: filter; buffer F, 37 C; conditions: tags: C-terminal His6; R&D Systems 3627-GP; label: 5'-32P
Method: as §1, with “minutes.” for “minutes. RNA and GPVI dilutions were equilibrated at 37° C. prior to use. RNA (5 μL) was added to varying concentrations of GPVI (15 μL) at 37° C. and incubated together for 5 to 15 minutes.”
(§2) The affinity of each of the anti-GPVI ligands for GPVI was determined by direct binding studies using radiolabeled trace ligand RNA and soluble GPVI, per the binding methodology described above in Example 1.

[7] = biological target: T2, Glycoprotein VI extracellular domain …; experiment: filter; text p359 names it EF-3 T2mut8; conditions: tags: C-terminal His6; R&D Systems 3627-GP; label: 5'-32P
Method: as §1

[8] = biological target: T2, Glycoprotein VI extracellular domain …; experiment: filter; text p359 names it EF-3 T2 mut9; conditions: tags: C-terminal His6; R&D Systems 3627-GP; label: 5'-32P
Method: as §1

[9] = biological target: T2, Glycoprotein VI extracellular domain …; experiment: filter; text p359 names it EF-3 T2mut10; conditions: tags: C-terminal His6; R&D Systems 3627-GP; label: 5'-32P
Method: as §1

[10] = biological target: T2, Glycoprotein VI extracellular domain …; experiment: filter; text: family range about 11 to 50 nM, EF-1 lowest affinity; conditions: tags: C-terminal His6; R&D Systems 3627-GP; label: 5'-32P
Method: as §1, with “minutes.” for “minutes. RNA and GPVI dilutions were equilibrated at 37° C. prior to use. RNA (5 μL) was added to varying concentrations of GPVI (15 μL) at 37° C. and incubated together for 5 to 15 minutes.”
as §2

[11] = biological target: T2, Glycoprotein VI extracellular domain …; experiment: filter; buffer F, 37 C; conditions: tags: C-terminal His6; R&D Systems 3627-GP; label: 5'-32P

## GGAGGACGGCGCGCCUGGCAUAAGCCUCC [RB540]
[1]; 2'-OH G1, 2'-deoxy A6,G8,G9, 2'-F C7,C14,C15,U16,C19,U21, all others 2'-OMe, hexaethylene glycol spacer between G11 and C12, 3' idT, buffer F, 37 C
  Kd: 15 nM

## GGAGGACGGCGCGCCUGGCAUAAGCCUCC [RB507]
[1]; RB490 pattern, hexaethylene glycol spacer between G11 and C12, 3' idT
  Kd: < 10 nM

## GGAGGACGGCGCGCCUGGCAUAAGCCUCC [RB537]
[1]; RB526 pattern, hexaethylene glycol spacer between G11 and C12, 3' idT
  Kd: < 10 nM

## GGGAGGACGACGCGUCUGGCAUAAGCCUCCC [RB536]
[1]; RB535 with 2'-OMe G9
  Kd: > 40 nM

## GGAGGACGGCGCGCCUGGCAUAAGCCUCC [RB521]
[1]; RB520 pattern, hexaethylene glycol spacer between G11 and C12, 3' idT, buffer F, 37 C
  Kd: 6 nM

## GGAGGACGGCGCGCCUGGCAUAAGCCUCC (ssRNA, RB540 with PS G8-G9 and G9-C10) [RB566]
[2]
  Kd: ~2.45 nM

## GGAGGACGGCGCGCCUGGCAUAAGCCUCC (ssRNA, RB567 with 5' branched 40 kDa PEG) [RB571]
[3]
  Kd: ~5 nM

## GGAGGACGGCGCGCCUGGCAUAAGCCUCC (ssRNA, RB540 with 2'-OMe G1 and 5' hexylamino linker) [RB542]
[4]
  Kd: 15.5 nM

## GGAGGACGGCGCGCCUGGCAUAAGCCUCC (ssRNA, RB540 with PS C7-G8) [RB548]
[5]
  Kd: 15.5 nM

## GGAGGACGGCGCGCCUGGCAUAAGCCUCC (ssRNA, RB549 with 2'-OMe G1 and 5' hexylamino linker) [RB560]
[4]
  Kd: < 10 nM

B1: EF-2 (RB427) (ssRNA)
RNA: GGGAGGACGAUGCGGUGCCAAAACACCCGUCUUGCAUAAGCCUCCUACGGCAACUCAGACGACUCGCUGAGGAUCCGAGA
modifications: 2'-F C and U; 2'-OH A and G
[6]
  Kd: 15.5 nM

## GGGAGGACGGCGAUCACACGCCUGGCGUAAGCCUCCC (ssRNA, 2'-F C and U; 2'-OH A and G) [EF-3 T5 mut8]
[7]
  Kd: 15.5 nM

## GGGAGGACGGCGAUCACACGCCUUGCAUAAGCCUCCC (ssRNA, 2'-F C and U; 2'-OH A and G) [EF-3 T5 mut9]
[8]
  Kd: 15.5 nM

## GGGAGGACGGCGAUCACACGCCUGGCAUAAGCCUCCC (ssRNA, 2'-F C and U; 2'-OH A and G) [EF-3 T5 mut10]
[9]
  Kd: 15.5 nM

## GGAGGACGGCGCGCCUGGCAUAAGCCUCC (ssRNA, RB540 with PS G5-A6) [RB546]
[5]
  Kd: 15.5 nM

## GGAGGACGGCGCGCCUGGCAUAAGCCUCC (ssRNA, RB560 with 5' branched 40 kDa PEG) [RB569]
[4]
  Kd: < 10 nM

## GGGAGGACGUGCGGUCUAAGCUGCGCUGGCAUAAGCCUCCC (ssRNA, 2'-F C and U; 2'-OH A and G) [EF-31 T4 (RB441)]
[5]
  Kd: > 40 nM

## GGAGGACGGCGCGCCUGGCAUAAGCCUCC (ssRNA, RB540 with 2'-OH G8) [RB551]
[5]
  Kd: 15.5 nM

## GGGAGGACGGCCUAAGCCUGGCAUAAGCCUCCC (ssRNA, 2'-F C and U; 2'-OH A and G) [EF-31 T8]
[5]
  Kd: > 40 nM

B2: EF-1 (RB424) (ssRNA)
RNA: GGGAGGACGAUGCGGCAAUCGAAGCUGCAUCCAGCGUAAGCCUUCCAGGGAUCGUCAGACGACUCGCUGAGGAUCCGAGA
modifications: 2'-F C and U; 2'-OH A and G
[10]
  Kd: > 40 nM

## GGGAGGACGGCGCUAACGCCUGGCAUAAGCCUCCC (ssRNA, 2'-F C and U; 2'-OH A and G; 3' idT) [RB448]
[11]
  Kd: ~14.5 nM
